Assay results as given in patent US12325863B2, “MDA-7/IL-24 secretory variants and methods of use” (Virginia Commonwealth University, priority 2018, dated 2025).

Key:
[1] = Sabutoclax and BI-97D6 in combination with MDA-7/IL-24; conditions: combined with MDA-7/IL-24; earlier observation referred to
Method: To test a multi-target approach for treatment of prostate cancer bone metastases, experiments were conducted to target Mcl-1 inhibition and investigate the effects on NG-mda-7/IL-24 efficacy. […] In addition to these inhibitors, three commercially available targeted inhibitors were evaluated to determine potential synergistic effects with MDA-7/IL-24. […] Next, the therapeutic effect of MDA-7/IL-24 protein in combination with BI-97D6 was tested, in male athymic nude mice injected by the intracardiac route with human prostate cancer PC3-ML cells, resulting in bone metastases.

[2] = tested on: human prostate cancer PC3-ML cells; assay: PC3-ML intracardiac bone metastasis model in athymic nude mice; type: in vivo; conditions: single agent, versus control group
Method: To test a multi-target approach for treatment of prostate cancer bone metastases, experiments were conducted to target Mcl-1 inhibition and investigate the effects on NG-mda-7/IL-24 efficacy. Using NMR (nuclear magnetic resonance) and computational biology, two Mcl-1 inhibitors were identified (Sabutoclax and BI-97D6) and their activity was validated in immune competent mice in combination with MDA-7/IL-24. In addition to these inhibitors, three commercially available targeted inhibitors were evaluated to determine potential synergistic effects with MDA-7/IL-24. The three inhibitors were UMI-77 (showing selectivity to Mcl-1 over other members of the Bcl-2 family), Marinopyrrole A (selective inhibitor of Mcl-1), and A-1210477. […] Mcl-1 expression was elevated by 1.7-fold in RM1-BM (RM1-BM cells selected for enhanced metastasis to bone) as compared to RM1 cells, indicating functional relevance of Mcl-1 in this metastatic process. […] This further supported the cancer-specificity of specific Mcl-1 inhibitors. Next, the therapeutic effect of MDA-7/IL-24 protein in combination with BI-97D6 was tested, in male athymic nude mice injected by the intracardiac route with human prostate cancer PC3-ML cells, resulting in bone metastases.

RWPE-1 cells = assay: MTT assay with Mcl-1 inhibitors, RWPE-1; type: cell-based, human; conditions: alone or in combination with MDA-7/IL-24, 48 hrs; FIG. 26C
Method: Human (DU-145) CaP cells were treated with different targeted small molecules alone (FIG. 26A) or in combination with MDA-7/IL-24 (FIG. 26B), and after 48 hrs cell growth was measured by MTT. * indicates statistical significance vs. respective control group. Immortalized primary normal human prostate epithelial cells, RWPE-1, were treated with different combinations as indicated and MTT assays were performed at 48 hrs (FIG. 26C). Murine (RMI-BM) CaP cells were treated with different targeted small molecules alone (FIG. 26D) or in combination with MDA-7/IL-24 (FIG. 26E), and after 48 hrs. cell growth was measured by MTT.
To test a multi-target approach for treatment of prostate cancer bone metastases, experiments were conducted to target Mcl-1 inhibition and investigate the effects on NG-mda-7/IL-24 efficacy. Using NMR (nuclear magnetic resonance) and computational biology, two Mcl-1 inhibitors were identified (Sabutoclax and BI-97D6) and their activity was validated in immune competent mice in combination with MDA-7/IL-24. In addition to these inhibitors, three commercially available targeted inhibitors were evaluated to determine potential synergistic effects with MDA-7/IL-24. The three inhibitors were UMI-77 (showing selectivity to Mcl-1 over other members of the Bcl-2 family), Marinopyrrole A (selective inhibitor of Mcl-1), and A-1210477. […]

HeLa cells [3] = assay: MTT assay following transfection of HeLa cells with constructs; type: cell-based, human; conditions: for proliferation (MTT): following transfection of HeLa cells, FIG. 14
Description: (§1) Next, lysine 122 of MDA-7/IL-24 was converted to arginine by site directed mutagenesis using forward primer (5′-[…]-3′) (SEQ ID NO: 19) and reverse primer (5′-[…]-3′) (SEQ ID NO: 20). […] These enzymes are capable of reducing the tetrazolium dye MTT 3-(4,5-dimethylthiazol-2-yl)-2,5-diphenyltetrazolium bromide to its insoluble formazan, which has a purple color.
(§2) Having an MDA-7/IL-24 construct with enhanced protein secretion as well as enhanced protein stability may be very valuable as a potential gene therapeutic for cancer. Accordingly, lysine 122 was mutated to arginine in the Insulin(sp)-MDA-7 construct using site-directed mutagenesis. […] PARP cleavage and the expression of GRP-78 were also assessed in DU-145 cells following transfection with MDA-7(sp)-MDA-7 (wild type MDA-7 signal peptide), Insulin(sp)-MDA-7, MDA-7(sp)-MDA-7(K122R) and Insulin(sp)-MDA-7(K122R) (FIG. 13).
(§3) PARP cleavage and the expression of GRP-78 were also evaluated in DU-145 cells following transfection with these four constructs, the results for which are shown in FIG. 20.

SARI = SARI expression at the transcript level in transfected DU-145 cells; type: cell-based, human
Method: (§4) SARI expression was determined at the transcript level in DU-145 cells after transfection with the indicated plasmids. […] The protein expression of MDA-7/IL-24 from the conditioned media (FIG. 5) and cell lysates (FIG. 6) of HeLa cells transfected with full length MDA-7 and Insulin(sp)-MDA-7 was assayed.
as §2, §3

DU-145 cells [4] = assay: M4 expression in conditioned media of transfected DU-145 cells (ELISA); type: cell-based, human; conditions: compared to the other 3 signal peptides, FIG. 17
Method: To determine if different sequence motifs could enhance the secretion of M4 over Flt-3(sp)-M4, three additional signal peptides linked to M4 were introduced and protein secretion was assessed. The four signal peptides tested were endogenous human MDA-7/IL-24, human IL-2, human Insulin, and Flt-3 signal peptides. The constructs were designated MDA-7(sp)-M4 (wildtype MDA-7/IL-24 secretory peptide), IL-2(sp)-M4, Insulin(sp)-M4, and Flt-3(sp)-M4, respectively, and a schematic illustration is shown in FIG. 16. Each of these constructs also included a Histidine-tag. These constructs were transfected into DU-145 cells and assessed for expression of M4 in the conditioned media (FIG. 17) and at the transcript level (FIG. 18). An MDA-7/IL-24 antibody and RT-Q-PCR primers able to detect M4 were used to assess M4 expression.
as §3

DU-145 cells [5] = assay: M4 protein in lysate and conditioned media of transfected DU-145 cells; type: cell-based, human; conditions: K122R versus Flt-3(sp)-M4, FIG. 22
Description: (§5) As noted in Example 1, improvements were obtained by mutating lysine at position 122 to arginine in full-length MDA-7/IL-24. The corresponding lysine was identified in M4 and mutated to arginine using site directed mutagenesis using forward primer (5′-[…]-3′) (SEQ ID NO: 19) and reverse primer (5′-[…]-3′) (SEQ ID NO: 20). Next, Flt-3(sp)-M4 and Flt-3(sp)-M4(K122R) were transfected into DU-145 cells. […] The conditioned media from transfected IM-PHFA (immortalized primary human fetal astrocytes) cells was added to DU-145 cells and MTT assays were performed (FIG. 24).

DU-145 cells [6] = assay: MTT assay, DU-145 cells treated with conditioned media from transfected IM-PHFA cells; type: cell-based, human; conditions: compared to the control, FIG. 24
Description: as §5

DU-145 cells [7] = assay: MTT assay, DU-145 cells treated with conditioned media from transfected HeLa cells; type: cell-based, human; conditions: vs control conditioned media, FIG. 9
Description: as §1

HeLa cells [8] = assay: MTT assay, HeLa cells treated with conditioned media from transfected HeLa cells; type: cell-based, human; conditions: vs control conditioned media, FIG. 8
Description: as §1

HeLa cells [9] = assay: MDA-7/IL-24 protein in conditioned media and lysates of transfected HeLa cells (Western blotting); type: cell-based, human
Method: as §4, §1

DU-145 cells [10] = assay: MDA-7/IL-24 transcript level (RTQ-PCR) in transfected DU-145 cells; type: cell-based, human; conditions: DU-145 cells transfected; FIG. 11
DU-145 cells [11] = assay: ELISA of MDA-7/IL-24 protein in conditioned media of transfected DU-145 cells; type: cell-based, human; conditions: DU-145 cells transfected; FIG. 10
Method: In an effort to enhance its anti-cancer activity, genetic engineering experiments were conducted to enhance MDA-7/IL-24 secretion. Five different signal peptides (abbreviated “sp”) were introduced, linked to MDA-7/IL-24, and assessed for protein secretion. The five signal peptides tested were endogenous human MDA-7/IL-24, human IL-2, human Insulin, Flt-3 and human BM40 (osteonectin/SPARC) signal peptides. The constructs were designated MDA-7(sp)-MDA-7 (wild type MDA-7 signal peptide), IL-2(sp)-MDA-7, Insulin(sp)-MDA-7, Flt-3(sp)-MDA-7 and BM40(sp)-MDA-7, respectively. Each of these constructs also included a Histidine-tag. These constructs were transfected into DU-145 cells (human prostate cancer cells).
The presence of MDA-7/IL-24 in the conditioned media was assessed by enzyme-linked immunosorbent assay (ELISA) and results are shown in FIG. 2.
as §2

Molecule: BI-97D6 [reference compound]
- antitumor synergy [1]: antitumor synergy
- bone metastases [2]: statistically significant inhibition of bone metastases

Molecule: O=C(c1ccccc1O)c1[nH]c(Cl)c(Cl)c1-n1c(C(=O)c2ccccc2O)cc(Cl)c1Cl [Marinopyrrole A]
- anti-proliferative effects (MTT) (RWPE-1 cells): anti-proliferative effects

B1: Insulin(sp)-M4: human Insulin signal peptide linked to M4; encoded by SEQ ID NO: 12 (protein)
chain: MALWMRLLPLLALLALWGPDPAAAHHHHHHENLYFQGMESCYLVHTLLEFYLKTVFKNYHNRTVEVRTLKSFSTLANNFVLIVSQLQPSQENEMFSIRDSAHRRFLLFRRAFKQLDVEAALTKALGEVDILLTWMQKFYKL
- growth (MTT) (HeLa cells [3]; M4 constructs, transfection of HeLa cells, FIG. 21): growth suppression
- SARI expression (SARI; DU-145 cells, four signal peptide M4 constructs, FIG. 19): highest SARI expression
- M4 protein secretion (DU-145 cells [4]): enhanced M4 protein secretion to a greater extent

B2: Flt-3(sp)-M4(K122R): Flt-3(sp)-M4 with the corresponding lysine mutated to arginine; encoded by SEQ ID NO: 16 (protein)
chain: MTVLAPAWSPTTYLLLLLLLSGSESCYLVHTLLEFYLKTVFRNYHNRTVEVRTLKSFSTLANNFVLIVSQLQPSQENEMFSIRDSAHRRFLLFRRAFKQLDVEAALTKALGEVDILLTWMQRFYKLGGSHHHHHH
- protein in cell lysates (DU-145 cells [5]): increase in protein
- protein in the conditioned media (DU-145 cells [5]): increase in protein
- cell growth (MTT) (DU-145 cells [6]): cell growth suppression

B3: Flt-3(sp)-M4: Flt-3 signal peptide linked to M4; encoded by SEQ ID NO: 14 (protein)
chain: MTVLAPAWSPTTYLLLLLLLSGSESCYLVHTLLEFYLKTVFKNYHNRTVEVRTLKSFSTLANNFVLIVSQLQPSQENEMFSIRDSAHRRFLLFRRAFKQLDVEAALTKALGEVDILLTWMQKFYKLGGSHHHHHH
- cell growth (MTT) (DU-145 cells [6]): cell growth suppression

B4: MDA-7(sp)-MDA-7(K122R): MDA-7/IL-24 with lysine 122 converted to arginine; encoded by SEQ ID NO: 10 (protein, UniProt Q13007 1-206, looked up, variant K122R)
chain: MNFQQRLQSLWTLARPFCPPLLATASQMQMVVLPCLGFTLLLWSQVSGAQGQEFHFGPCQVKGVVPQKLWEAFWAVKDTMQAQDNITSARLLQQEVLQNVSDAESCYLVHTLLEFYLKTVFRNYHNRTVEVRTLKSFSTLANNFVLIVSQLQPSQENEMFSIRDSAHRRFLLFRRAFKQLDVEAALTKALGEVDILLTWMQKFYKL
modifications: full-length
- proliferation (MTT) (DU-145 cells [7]): decrease in proliferation
- proliferation (MTT) (HeLa cells [8]): decrease in proliferation
- proliferation (MTT) (HeLa cells [3]): decrease in proliferation
- protein in the conditioned media by Western blotting (HeLa cells [9]; HeLa cells transfected, FIG. 5): increase in protein
- protein in cell lysate by Western blotting (HeLa cells [9]; HeLa cells transfected, FIG. 6): increase in protein

B5: Insulin(sp)-MDA-7: human Insulin signal peptide linked to MDA-7/IL-24, Histidine-tag; encoded by SEQ ID NO: 6 (protein)
chain: MALWMRLLPLLALLALWGPDPAAAHHHHHHENLYFQGMQEFHFGPCQVKGVVPQKLWEAFWAVKDTMQAQDNITSARLLQQEVLQNVSDAESCYLVHTLLEFYLKTVFKNYHNRTVEVRTLKSFSTLANNFVLIVSQLQPSQENEMFSIRDSAHRRFLLFRRAFKQLDVEAALTKALGEVDILLTWMQKFYKL
- proliferation (MTT) (DU-145 cells [7]): decrease in proliferation
- proliferation (MTT) (HeLa cells [8]): decrease in proliferation
- proliferation (MTT) (HeLa cells [3]): decrease in proliferation
- SARI expression at the transcript level (SARI; DU-145 cells, five signal peptide MDA-7 constructs, FIG. 4): highest SARI expression
- MDA-7/IL-24 protein secretion (HeLa cells [9]; HeLa cells, versus full length MDA-7, FIGS. 5, 6): dramatic increase in MDA-7/IL-24 protein secretion

B6: Insulin(sp)-MDA-7(K122R): insulin signal peptide fused to the K122R mutation variant of MDA-7/IL-24; encoded by SEQ ID NO: 11 (protein)
chain: MALWMRLLPLLALLALWGPDPAAAHHHHHHENLYFQGMQEFHFGPCQVKGVVPQKLWEAFWAVKDTMQAQDNITSARLLQQEVLQNVSDAESCYLVHTLLEFYLKTVFRNYHNRTVEVRTLKSFSTLANNFVLIVSQLQPSQENEMFSIRDSAHRRFLLFRRAFKQLDVEAALTKALGEVDILLTWMQKFYKL
- proliferation (MTT) (HeLa cells [3]): decrease in proliferation
- SARI induction at the transcript level (SARI; compared to Insulin(sp)-MDA-7 or MDA-7 containing K122R, FIG. 12): highest SARI induction
- MDA-7/IL-24 expression at the transcript level using RTQ-PCR (DU-145 cells [10]): enhanced MDA-7/IL-24 expression
- MDA-7/IL-24 expression in the conditioned media using ELISA (DU-145 cells [11]): enhanced MDA-7/IL-24 expression
